For experiment [1], the target named is PEbody with N-terminal 6x His tag (human) (UniProt P02751). The experiment is described as follows: BLI. (BLI is a label-free optical method that tracks binding on a fibre tip over time.)
Experiment [2] addresses Single4 monobody displayed on the yeast surface (human) (UniProt P02751). The experiment is described as follows: flow cytometry on cells.

Drawing on publication PMC5910193, this text covers Kd and fold R-PE binding capability against G9 for one substance.

For orientation: Kd means the concentration at which binding is half-saturated. In experiment [1], R-Phycoerythrin (complex) displayed a dissociation constant (Kd) of 5.7 nM. In addition, the fold R-PE binding capability against G9 in experiment [2] was found to be 500 fold.
